{"source": "paper PMC12435366", "about": "“Maleic anhydride derived diphosphines: adaptable chelators for receptor-targeted ^99mTc, ^64Cu and ^188Re radiotracers” (Chemical Science, 2025)", "system": "PSMA-expressing tumours", "assay": "Ex vivo biodistribution across both mouse models (DU145-PSMA+ and LNCaP xenografts)", "type": "in vivo, mice", "conditions": "both tracers, 2 h post-injection", "experimental": "The biodistribution of [^99mTcO2(DP^An-PSMAt)2]^+ and [^99mTcO2(DP^MEP-PSMAt)2]^+ was studied using SPECT/CT imaging and ex vivo biodistribution methods. In these studies, [^99mTcO2(DP^An-PSMAt)2]^+ and [^99mTcO2(DP^MEP-PSMAt)2]^+ were used directly from kit-based formulations, without further purification, mimicking procedures used in clinical radiopharmacies and nuclear medicine departments. Mice were injected with [^99mTcO2(DP^An-PSMAt)2]^+ or [^99mTcO2(DP^MEP-PSMAt)2]^+ (4–5 MBq), containing 3 μg (2.6 nmol) of DP^An-PSMAt or 3.5 μg (2.6 nmol) of (DP^MEP-PSMAt) via the tail-vein, and culled 2 h post-injection, followed by dissection, organ/tissue weighing and counting. […]\nFor all animals, significant concentrations of ^99mTc radioactivity (2–5 %ID g^−1) were measured in PSMA-expressing tumours 2 h post-injection, and although ^99mTc tumour concentrations were consistently higher for animals administered [^99mTcO2(DP^An-PSMAt)2]^+, there were no statistically significant differences between [^99mTcO2(DP^An-PSMAt)2]^+ and [^99mTcO2(DP^MEP-PSMAt)2]^+ in either mouse model. For both tracers, there were also significant concentrations of ^99mTc radioactivity in the spleen, which is known to express low levels of PSMA and accumulate PSMA-targeted radiotracers,[9,10] and the liver. […]", "data": [{"smiles": "COc1ccc(P(/C(C(=O)O)=C(/C(=O)NCCOCCOCCOCCOCCC(=O)NCCCC[C@H](NC(=O)N[C@@H](CCC(=O)O)C(=O)O)C(=O)O)P(c2ccc(OC)cc2)c2ccc(OC)cc2)c2ccc(OC)cc2)cc1", "note": "[[^99mTcO2(DP^An-PSMAt)2]^+, metal not drawn]", "values": [{"measurement": "^99mTc radioactivity concentration in kidneys", "value": "40–90 %ID g^−1"}]}, {"smiles": "COCCOc1ccc(P(/C(C(=O)O)=C(/C(=O)NCCOCCOCCOCCOCCC(=O)NCCCC[C@H](NC(=O)N[C@@H](CCC(=O)O)C(=O)O)C(=O)O)P(c2ccc(OCCOC)cc2)c2ccc(OCCOC)cc2)c2ccc(OCCOC)cc2)cc1", "note": "[[^99mTcO2(DP^MEP-PSMAt)2]^+, metal not drawn]", "values": [{"measurement": "^99mTc radioactivity concentration in kidneys", "value": "40–90 %ID g^−1"}]}]}
